Test results from patent US20230051872A1, “Multivalent D-Peptidic Compounds for Target Proteins” (Reflexion Pharmaceuticals, Inc., priority 2019, published 2023).
One block for each molecule: values may come before it.

Experiments:
[1] = Subcutaneous immunization, ELISA for antigen-specific serum IgG (anti-drug antibodies); type: in vivo, BALB/c mice; conditions: repeated subcutaneous immunization with adjuvant, Days 0, 21, 35; serum to Day 42
Method: Adjuvant was purchased from TiterMax. […] All the procedures related to animal handling, care and treatment in the study were performed according to the guidelines set forth in an ACUP protocol for polyclonal antisera production in mice, approved by the Institutional Animal Care and Use Committee (IACUC) of Josman LLC.

[2] = target: PD-1/PD-L1 complex (Homo sapiens, UniProt Q9NZQ7); conditions: in vitro, reference 31; read-out: IC50, dissociation of PD-1/PD-L1 complex; cited from earlier work
[3] = target: Human PD-1-Fc (R&D Systems cat #1086-PD-050), biotinylated (human) (UniProt Q15116); assay: SPR, D-peptidic compound on natural L-PD-1 (Example 1)
[4] = target: Human PD-1-Fc (R&D Systems cat #1086-PD-050), biotinylated (human) (UniProt Q15116); assay: SPR (Table 2)

Human PD-1-Fc (R&D Systems cat #1086-PD-050), biotinylated (human), sequence (Q15116 25-167 limits assumed): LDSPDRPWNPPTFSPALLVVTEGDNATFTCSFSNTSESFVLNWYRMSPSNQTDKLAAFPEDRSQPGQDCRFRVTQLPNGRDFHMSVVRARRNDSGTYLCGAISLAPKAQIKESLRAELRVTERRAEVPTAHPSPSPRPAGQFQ
PD-1/PD-L1 complex, sequence (Q9NZQ7 19-238 limits assumed, one chain of several): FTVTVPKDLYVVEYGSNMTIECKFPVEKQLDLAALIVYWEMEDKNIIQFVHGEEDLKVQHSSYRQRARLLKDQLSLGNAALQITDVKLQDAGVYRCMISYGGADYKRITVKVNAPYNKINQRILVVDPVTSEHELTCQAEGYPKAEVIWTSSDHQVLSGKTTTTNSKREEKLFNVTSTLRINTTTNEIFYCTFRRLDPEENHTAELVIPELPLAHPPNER

Molecule: nivolumab
anti-drug antibody response (antigen-specific serum IgG) [1]: strong serum IgG titers

Molecule: C[C@@H](O)[C@H](NC(=O)N[C@@H](CC(N)=O)c1nc([C@H](N)CO)no1)C(=O)O [CA-170]
IC50 [2]: 5000 to 10000 µM

Kd [3]: 0.625 µM | Kd [4]: 1.51 µM
B1: RFX-977296 (designed binder)
chain: TIDQWLLKNAKEDAIAELKKAGITSDLYFNWINVAGSVSSVNFHKNYILKAHA
modifications: D-protein

Kd [4]: 0.114 µM
B2: 977978 (designed binder)
chain: TIDQWLLKNAKEDAIAELKKAGITCDLYFNWINVAGSVSSVNFHKNYILKAHA
modifications: not fully specified; D-protein
